Measurements from patent publication US20100285583A1, “COMPOUNDS AND METHODS FOR INHIBITING PLATELET AGGREGATION” (priority 2009, published 2010).

How the values were obtained:
Human washed platelets = test: Platelet immunofluorescence analysis (subcellular localization); format: cell-based; conditions: 1.9 μM
Method: Washed platelets (50 μl of […] in Tyrode's albumin buffer) were incubated with 1.9 μM of PTB domain constructs for 5 min at room temperature in the presence of 0.25 g/L fibrinogen. Aggregation was initiated by the addition of 10 μM TRAP. Reactions were incubated at room temperature unless otherwise indicated. Platelets were fixed with 0.4 mL of 3.7% formaldehyde in Phosphate Buffered Saline (PBS) for 30 min. Next, 20% goat serum was added to the fixed platelets, and 60% of the total fixed reaction was centrifuged using a Shandon cytospinner onto a Shandon coated cytoslide to achieve the appropriate platelet density for analysis. Slides were then washed twice with PBS for 10 min. Platelets were permeabilized with 0.5% Triton X-100 in PBS for 10 min and then blocked with 20% goat serum in PBS with 0.1% Triton X-100 for 1 h at room temperature. Platelets were washed 3 times with PBS with 0.1% Triton for 10 minutes and further incubated overnight with the anti-Dab2 antibody 1:100 (anti-p96; BD Transduction) in PBS with 0.1% Triton X-100 and 10% goat serum at 4° C. in a humidity chamber. Platelets were then washed and incubated with the anti-mouse Cy-3 conjugated goat antibody 1:250 and Alexa488 conjugated phalloidin (25 μg/mL) in PBS with 0.1% Triton X-100 and 10% goat serum for 2 h. Platelets were washed again and observed on an Olympus IX71 microscope using the Softworx Applied Precision software.
Mean pixel intensity was determined for 400 platelets from four fields each for 3 min and 10 min of treatments by manually drawing circles around individual platelets using the 2D Polygon tool in the Softworx software. For each time point, a threshold of significant mean pixel intensity was defined for the experiment. The percentage of countable platelets to exceed the threshold was calculated for each field and the average of four fields was computed with standard deviation. The ratio of internalization:binding is the quotient of these averages for a treatment.

[1] = CD spectroscopy, secondary structure composition; format: physicochemical; conditions: 5 μM construct, DICHROWEB/CDSSTR
Method: Spectra were collected using a Jasco J-720 spectropolarimeter. Far-UV CD spectra were measured for Dab2 PTB constructs (5 μM in 5 mM Tris, 100 mM potassium fluoride, 100 μM DTT, pH 6.8) using a 1 mm-slit-width cuvette. Five accumulated scans were recorded for each sample between 190 and 260 nm at 20° C. in increments of 0.5 nm. Background of buffer alone was subtracted from each spectrum. Raw data were converted to mean residue ellipticity and analyzed for secondary structure composition using DICHROWEB and deconvoluted using CDSSTR.

[2] = Liposome-binding assay, sulfatide liposomes; conditions: liposomes with sulfatides
Method: (§1) Lipid stocks including sulfatides, PE, PS, and PtdIns(4,5)P2 were dissolved in chloroform:methanol:water (1:2;0.8, 65:35:8, 65:35:4 and 65:35:8, respectively), whereas cholesterol and PC were dissolved in chloroform:methanol (1:1). Sulfatides liposomes were prepared in a weight ratio of 1:1:1:4 of PC:PE:cholesterol:sulfatides. PtdIns(4,5)P2 liposomes were prepared in a percent ratio of 50:20:10:10:10 of PC:PE:PS:cholesterol:PtdIns(4,5)P2. Controls were prepared by adjusting the ratios with PC. Lipid films were generated by lyophilization overnight and hydrated in 20 mM Tris-HCl (pH 6.8), 100 mM NaCl, 2 mM dithiothreitol (DTT) at 1 mg/mL and freeze-thawed 3 times. Liposomes were sonicated and further pelleted and suspended in 4 mg/mL. Ten μg of protein were incubated with 125 μg of total lipids for 20 min at RT. Liposome-bound and free-protein samples were separated by centrifugation and analyzed by SDS-PAGE. Bands were quantified using AlphaImager, and the percentage of total protein each fraction contained was calculated from the total protein.

Washed platelets = test: Platelet aggregation under flow assay (microfluidics channel); format: cell-based, human; conditions: 10 μM, with sulfatide liposomes, shear rate 70 s^−1
Method: The microfluidic device consisted in a simple straight channel 500 μm wide, 50 μm deep and 3.62 cm long. A silicon master stamp was fabricated on a <100> silicon substrate following a previously described process (Ross et al. Ann. Rev. Med. 1987, 38:71-79). Flow was driven using a micro-syringe pump (Cole-Parmer) with a 1 mL syringe connected to the channel inlet by 30 cm of Cole-Parmer gauge 20 Teflon tubing. After priming the system with the sample, the pump was set to 0.05 mL/h (equivalent to an average velocity of 0.55 mm/sec in the channel), which is in the range of in vivo blood velocity (0.1-1.5 mm/sec (9)) and causes a shear rate of 70 sec−1. This flow rate was maintained for 1 min prior to the experiments. Platelets flowing through the channel were monitored using an inverted light microscope (DMI 6000B, Leica Microsystems) equipped with a digital camera (DFC420, Leica Microsystems).
Platelet aggregation is mediated by αIIbβ3 integrin interactions with fibrinogen and fibrin linking platelets together (Furie et al., J. Clin. Invest. 2005; 115 (12): 3355-3362; and Andrews et al., Thromb Res. 2004; 114:447-453). P-selectin links aggregated platelets together stabilizing clot formation (Merten 2001). Sulfatides stimulate increased levels of both αIIbβ3 integrin and P-selectin expression on platelets (Merten 2005). […]

[3] = Liposome-binding assay, PtdIns(4,5)P2 liposomes; conditions: liposomes with PtdIns(4,5)P2
Method: as §1

B1: N-PTB: N-terminal phosphotyrosine binding domain (residues 1-241) of human Disabled-2 (Dab2), expressed as GST-fusion in E. coli (protein)
chain: MSNEVETSATNGQPDQQAAPKAPSKKEKKKGPEKTDEYLLARFKGDGVKYKAKLIGIDDVPDARGDKMSQDSMMKLKGMAARGRSQGQHKQRIWVNISLSGIKIIDEKTGVIEHEHPVNKISFIARDVTDNRAFGYVCGGEGQHQFFAIKTGQQAEPLVVDLKDLFQVIYNVKKKEEEKKKIEEASKAVENGSEALMILDDQTNKLKSGVDQMDLFGDMSTPPDLNSPTESKDILLVDLNS
localization at the platelet surface (Human washed platelets; 3 min after TRAP stimulation): clearly localized at the platelet surface
internalization (Human washed platelets; 10 min after activation): internalized
Helix 1 [1]: 8%
Helix 2 [1]: 10%
Strand 1 [1]: 17%
Strand 2 [1]: 10%
Turns [1]: 23%
Unordered [1]: 31%
sulfatide binding [2]: bound to sulfatide-enriched liposomes
inhibition of sulfatide induced platelet aggregation under flow (Washed platelets): returned to the size of untreated platelets
inhibition of sulfatide induced platelet aggregation under flow (Washed platelets; listed as N-PTB^4M): limited inhibition of platelet aggregate size but not adhesion
PtdIns(4,5)P2 binding [3]: bound to PtdIns(4,5)P2-containing liposomes
